Measurements from the nanobody polyreactivity screen of Harvey et al. (2022).

Assay: yeast display, Sf9 membrane polyspecificity reagent, FACS + sequencing; frameworks hold sequencing errors
Summary of the method: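 Using colony PCR, genes from sorted yeast display clones were amplified, then sequenced on MiSeq at 2 × 250 and filtered by CDR length. The clones had been stained with 10% biotinylated, detergent-solubilized Sf9 membrane reagent for 1 hour at 4 °C and sorted by FACS into low and high (top ~1%) gates on anti-HA and streptavidin fluorescence. Polyreactivity labels come from the gate of origin.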

| Sequence | polyreactivity (PSR sort gate) |
| --- | --- |
| QVQLVESGGGLVQEGGSLRLSCAASGRTFDRYAMGWYRQAPGKERELVAAITWTGGSTYYADSVKGRFTISRDNAKNTVYLQMNSLKPEDTAFYYCNRAPSRPTSKTRLYYWGKGTQVTVSS | high polyreactivity |
| QVQLVESGGGLVQEGGSLRLSCAASGRTFEQNAMGWYRQAPGKERELVASITSVGSTDYADSVKGRFTISRDNAKNTVYLQMNSLKTEDTAVYYCAKTLGSQNYDFDYWGQGTQVTVSS | low polyreactivity |
| QVQLVESGGGLVQEGGSLRLSCAASGRTFVPYAMGWYRQAPGKERELVAAISRSGGRTYYADSVKGRFTLSRDNAKNTVYLQMKSLKPEDTAVYYCAARYYSEPNAYYYWGQGTQVSVSS | high polyreactivity |
| QVQLVESGGGLVQEGGSLRLSCAASGSIFDDYAMGWYRQAPGKEWELVAAITSGGSTYYADSVKGRFTISRDNAKNTVYLQMNSLKPEDTAVYYRATRYHWSSSFAPVGAYGYWGHGTQVTVSS | low polyreactivity |
| QVQLVESGGGLVQEGGSLRLSCAASGSIFDVYAMGWSRQGPGKERELVAAISSSGSTYYADSVKGRFTISRDNAKNTVYLQMNSLKPEDTAVYYCAAVQADDDDYYYWGQGTQVTVSS | low polyreactivity |
| QVQLVESGGGLVQEGGSLRLSCAASGSIFKPYAMGWYRQAPGKERELVAAINRGGTSTYYADSVKGRFTISRDNAKHTVYLQMNRLKPEDTAVYYCAAEGQDGRFYWGQGTQVTVSS | low polyreactivity |
| QVQLVESGGGLVQEGGSLRLSCAASGSTFGLYAMGWYRQAPGKERELVAAISSRGSRTYYADSVKGRFTISRDNAKNTVYLQMNSLKPEDTAVYYCNAMYASCVRHKVTYDYWGQGTLVTVSS | high polyreactivity |
| QVQLVESGGGLVQEGGSLRLSCAASGSTFNYYAMGWYRQAPGKESELVARISWSGSTYADSVKGRFTISRDNAKNTVYLQMNSLKPEDTAVYYCAAPYVLKSHRGMDYWGQGTQVTVSS | low polyreactivity |
| QVQLVESGGGLVQEGGSLRLSCAASGSTISSYAMGWYRQAPGKERELVAAITSGGSTYYADSVKGRFTFSRDNAKNTVYLQMNSLKPDDTAVYYCDLGSTTMDYWGQGTQVTVSS | low polyreactivity |
| QVQLVESGGGLVQEGGSLRLSCADSGITFWAYAMGWYRQAPGKERELVASISSGGSTYYADSVKGRFTISRDNAKNTVYLQMNSLKPEDTAVYYCNTQDRSEYDWGQGTQVTVSS | high polyreactivity |
| QVQLVESGGGLVQEGGSLRLSCADSGSISYQNAMGWYRQAPGKERELVAAISGDGDSTYYADSVKGRFTISRDNAKNTVYLQMNSLNPEDTGVYYCAAEPNVYFSVFVLFPSDYWGQGTQVTVSS | low polyreactivity |
| QVQLVESGGGLVQEGGSLRLSCASSGFTFAYNAMVLYRQAPGKERELVAGINSSGDGTYYADSVKGRFTISRDNAKNTVYLQMNSLKPEETAVYYCAADYTRFYPDGSDVDYDYWGQGTQVTVSS | low polyreactivity |
| QVQLVESGGGLVQEGGSLSLSCAASGITFRSYTMGWYRQAPGKERELLAGITRRGGSTFYADSVKGRFTISRDNATNTVYLQMNSLNPEDTAVYFCAVGFYYLSSWYSYDYRGQGTQVTVSS | high polyreactivity |
| QVQLVESGGGLVQEGRSLRLSCAASGLTFQYYAMGWYRPAPGKERELVAAISSGGDTYYADSVKGRFTISRDNAKNNVYFQMYSVKREDTAVYYCAARVVLYSRSTYYYWGQGTQVTVSS | high polyreactivity |
| QVQLVESGGGLVQEGRSLRLSCAASGSIFTPYAMGWYRQAPGKERELVADINSGGSTDYADSVKGRFTISRDNAKNTVYLQMNSLKPEDTAVYYCASTWSFYFILYDYWGQGTQVTVSS | high polyreactivity |
| QVQLVESGGGLVQERGSLRLSCAASGSIFIPYARGWYRQAPGKERELVAAISLGDGKTYYADSVKGRFTISRDNAKNTVYLQMNSLKPEDTAVYYCNAVPRKFGDEYWGQGTQVTVSS | low polyreactivity |

| Sequence | polyreactivity (PSR sort gate) |
| --- | --- |
| QVQLVESGGGLVQEVGSLRLSCAATGRTFYQNVMGWSRQARGKERELVAAISQRGGRTYYADSVKGRFTISRDNAKITVYLQMNSLKPEDTEVYYCNADSTVWPYDYWGQGTQVTVSS | low polyreactivity |
| QVQLVESGGGLVQGGGSLRFSCAASGSTFPSYARGWYRQAPGKERELVAAINSGGGTNYADSVKGRFTISRDNAKNTVYLHMNSLKPEDTAVYYCAKSRYDYTKTEGGYWGQGTQVTVSS | low polyreactivity |
| QVQLVESGGGLVQGGGSLRLRCAASGRSFKWYAMVWYRQAPGKDRELVAGISRGAGRTYYADSEKGRFTISRDNAKNTVYLQMNSLKADDTAVYYCAAVPSYHSTSPFYYWGLGTQVTVSS | high polyreactivity |
| QVQLVESGGGLVQGGGSLRLSCAASGFTFVYYAMGWDRQAPGKERELVAAISRSGGSTYYADSVKGRFTISRDNAKNTFYLQMNSLKPEDTAVYYCAARKNYGSRLSYEYWGQGTQVSVSS | high polyreactivity |
| QVQLVESGGGLVQGGGSLRLSCAASGLIFSYYAMGWYRQAPGKERELVAAISRGGATNYADSVKGRFTISRDTAKNTVYLQMNSLKPEDTAVYYCSARFVLRRDYGYWGQGTQVTVSS | high polyreactivity |
| QVQLVESGGGLVQGGGSLRLSCAASGLIFYRNDMVWNRQAPGKERELVDAISKNGANTYYADSVKGRFTSSRDNAKNTVYLHMNCLKREDTAVYYCAKGVYYPWWYVQPEHDYWGQVTQVTVSS | high polyreactivity |
| QVQLVESGGGLVQGGGSLRLSCAASGRTFYRYVMGWYRQAPGKERELVADISRRGGRTYYADSVKGRFTISRDNAKNTVYLQMNSLKPEDTAVYYCAAGQLGDYWGLGTQVTVSS | high polyreactivity |
| QVQLVESGGGLVQGGGSLRLSCAASGSIFSDNAMGWYRQAPGKERELVATITFSGASTYYADSVKGRFTISRDNAKNTVYLKMNSLKPEDTAVYYCAAEEPDVIAQPGFDYWGQGTQVTVSS | low polyreactivity |
| QVQLVESGGGLVQGGGSLRLSCADSGSTFSSNAMGWYRQAPGKERELVAAITGSGGRTYYADSVKRRFTISRDNAKNTVYLQMNCLKPEDTAVYYCAKRYRGGYWGQGTQVTVSS | high polyreactivity |
| QVQLVESGGGLVQGGGSLSLSCAASGSIFLYYAMGWYRQAPGKERELVAGIRRGGRTNYSDSVKGRFTISRDNAKNNVYLQMNSLKPEDTAVDYCAKGGYCGQGTQVTVSS | high polyreactivity |
| QVQLVESGGGLVQPGGRLLLSSAASGSIFDYYVMGWYRLEPVKERELVAAISWSGASTYYADSVKGRFTISRDNAKNTVYVKMNSLKPEDTAVYYCAADYGVNTLIDYDYWGQGTQVTVSS | low polyreactivity |
| QVQLVESGGGLVQPGGSFHLSCAASGSIFVVYAMGWYRQAPVKERELVAAITSGGSTYYADSVKGRFTISRDNAKKTVYLQMNSLKPEDTAVYYCATTYRDGVYELTTFDYWGQGTQVTVSS | low polyreactivity |
| QVQLVESGGGLVQPGGSLRISCAASGFTFVYYVMGWYRQAPGKERELVAAINAGGGSTYYADSVKGRFTISRDNAKNTVYLQMNSLKPEDTAVYFCNARVRVRLGRNWSSYYYWGQGTEVTVSS | high polyreactivity |
| QVQLVESGGGLVQPGGSLRLSCAASGFIFPTNVMGWSRQAPGKEREFVASITWRGGGTYYADSVKGRFRISRDNAKNTVYVQMNSLKPEDTAVYYCAAGRSWSSYWKYDYWGQGTQVTVSS | low polyreactivity |
| QVQLVESGGGLVQPGGSLRLSCAASGGTFQPNAMVWYRQAPGKERELVAAISWSDGSTYYADSVKGRFTISLDNAKNTVYLQMNSLKPVDTAVYYCAADFTYYDSPYRDYNYESWGQGTQVTVSS | low polyreactivity |
| QVQLVESGGGLVQPGGSLRLSCAASGRTFTKNAMGWYRQAPGKERELVAAISISGGSTYYADSVKGRFTISRDNAKNTVYLLMNSLKPEDTAVYYCAADVVTYLSYTLDYWGQGTQVTVSS | low polyreactivity |
